Test results as given in patent US20070196860.

Biological target: SEQ ID NO. 25, Ac-…dPSxG-NH2

Row | Protein | reaction rate, PDGF-treated NIH3T3 lysate | reaction rate, control treated NIH3T3 lysate
1 | Akt3 (protein) SDVTIVKEGWVQKRGEYIKNWRPRYFLLKTDGSFIGYKEKPQDVDLPYPLNNFSVAKCQLMKTERPKPNTFIIRCLQWTTVIERTFHVDTPEEREEWTEAIQAVADRLQRQEEERMNCSPTSQIDNIGEEEMDASTTHHKRKTMNDFDYLKLLGKGTFGKVILVREKASGKYYAMKILKKEVIIAKDEVAHTLTESRVLKNTRHPFLTSLKYSFQTKDRLCFVMEYVNGGELFFHLSRERVFSEDRTRFYGAEIVSALDYLHSGKIVYRDLKLENLMLDKDGHIKITDFGLCKEGITDAATMKTFCGTPEYLAPEVLEDNDYGRAVDWWGLGVVMYEMMCGRLPFYNQDHEKLFELILMEDIKFPRTLSSDAKSLLSGLLIKDPNKRLGGGPDDAKEIMRHSFFSGVNWQDVYDKKLVPPFKPQVTSETDTRYFDEEFTAQTITITPPEKYDDDGMDGMDNERRPHFPQFSYSASGRE | The PDGF-treated sample showed a reaction rate of 1.24 RFU/sec | the control treated sample had a markedly reduced rate of 0.28 RFU/sec
2 | Akt1 (protein) MNDVAIVKEGWLHKRGEYIKTWRPRYFLLKNDGTFIGYKERPQDVDQRESPLNNFSVAQCQLMKTERPRPNTFIIRCLQWTTVIERTFHVETPEEREEWATAIQTVADGLKRQEEETMDFRSGSPSDNSGAEEMEVSLAKPKHRVTMNEFEYLKLLGKGTFGKVILVKEKATGRYYAMKILKKEVIVAKDEVAHTLTENRVLQNSRHPFLTALKYSFQTHDRLCFVMEYANGGELFFHLSRERVFSEDRARFYGAEIVSALDYLHSEKNVVYRDLKLENLMLDKDGHIKITDFGLCKEGIKDGATMKTFCGTPEYLAPEVLEDNDYGRAVDWWGLGVVMYEMMCGRLPFYNQDHEKLFELILMEEIRFPRTLGPEAKSLLSGLLKKDPTQRLGGGSEDAKEIMQHRFFANIVWQDVYEKKLSPPFKPQVTSETDTRYFDEEFTAQMITITPPDQDDSMECVDSERRPHFPQFSYSASGTA | The PDGF-treated sample showed a reaction rate of 1.13 RFU/sec | the control treated sample had a markedly reduced rate of 0.12 RFU/sec
